This data set concerns the molecule itself. As to the kind of experiment: DEER (pulse EPR) inter-spin distance measurement; single-site MTSSL-labelled RocCOR, 50-100 uM protein, frozen at 50 K, X band; 150 mM NaCl, 30 mM Tris/HCl, 5 mM MgCl2, pH 7.5, 5% glycerol; apo, 1 mM GppNHp, GDP-AlFx (1 mM GDP, 1 mM AlCl3, 10 mM NaF) or 1 mM GDP; distances between the two symmetry-related labels of the dimer.

Where a chain is given by its changes, count along the chain named.

B1: C. tepidum RocCOR (AA 412-946) C600R1 + Y558A (domain or fragment, Chlorobium tepidum, UniProt Q8KC98 412-946, looked up)
chain: DNPLESPPPEIVKQGKEAVRQYFQSIEEARSKGEALVHLQEIKVHLIGDGMAGKTSLLKQLIGETFDPKESQTHGLNVVTKQAPNIKGLENDDELKECLFHFWDFGGQEIMHASHQFFMTRSSVYMLLLDSRTDSNKHYWLRHIEKAGGKSPVIVVMNKIDENPSYNIEQKKINERFPAIENRFHRISCKNGDGVESIAKSLKSAVLHPDSIYGTPLAPSWIKVKEKLVEATTAQRYLNRTEVEKICNDSGITDPGERKTLLGYLNNLGIVLYFEALDLSEIYVLDPHWVTIGVYRIINSSKTKNGHLNTSALGYILNEEQIRCDEYDPAKNNKFTYTLLEQRYLLDIMKQFELCYDEGKGLFIIPSNLPTQIDNEPEITEGEPLRFIMKYDYLPSTIIPRLMIAMQHQILDRMQWRYGMVLKSQDHEGALAKVVAETKDSTITIAIQGEPRCKREYLSIIWYEIKKINANFTNLDVKEFIPLPGHPDELVEYKELLGLEKMGRDEYVSGKLEKVFSVSKMLDSVISKEERNKER
modifications: MTSSL spin label on the native cysteine at 600 (R1 side chain)
notes: Roco protein of Chlorobium tepidum, RocCOR tandem, AA 412-946; native Cys600 used for labelling; Y558 corresponds to Arg1441 of human LRRK2
Regarding B1, the binding result is reported as “binds”.

B2: C. tepidum RocCOR (AA 412-946) C600R1, spin-labelled at the native cysteine 600 in the Roc domain (domain or fragment, Chlorobium tepidum, UniProt Q8KC98 412-946, looked up)
chain: B1 chain with A147Y
modifications: MTSSL spin label on the native cysteine at 600 (R1 side chain)
notes: Roco protein of Chlorobium tepidum, RocCOR tandem, AA 412-946; native Cys600 used for labelling; Forms a homodimer; the row is the protomer with itself; also called C600R1^Roc
Turning to B2, the binding result is on record as “binds”.

B3: C. tepidum RocCOR (AA 412-946) C600R1 + L487A (domain or fragment, Chlorobium tepidum, UniProt Q8KC98 412-946, looked up)
chain: B1 chain with L76A, A147Y
modifications: MTSSL spin label on the native cysteine at 600 (R1 side chain)
notes: Roco protein of Chlorobium tepidum, RocCOR tandem, AA 412-946; native Cys600 used for labelling; L487 corresponds to Ile1371 of human LRRK2
B3: the binding result is reported as “binds”.

These data come from article PMC4721548, “Conformational heterogeneity of the Roc domains in C. tepidum Roc–COR and implications for human LRRK2 Parkinson mutations” (Bioscience Reports, 2015).
